Experimental data taken from patent US20220281967A1 (OREGA BIOTECH, published 2022).

Assays:
[1] = target: T1, human IL-17B (R&D Systems, ref: 1248-IB/CF) (human, UniProt Q9UHF5 21-180); assay: ELISA, human IL-17B coated on the plate, goat anti-mouse HRP detection
T1 construct: Bought recombinant protein; also called hIL-17B; interleukin 17B
T1 sequence: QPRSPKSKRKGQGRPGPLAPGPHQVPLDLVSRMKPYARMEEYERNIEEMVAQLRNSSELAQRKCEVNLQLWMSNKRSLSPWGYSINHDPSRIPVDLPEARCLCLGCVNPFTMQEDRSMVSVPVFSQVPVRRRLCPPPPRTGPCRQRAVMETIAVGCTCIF

[2] = target: T2, human IL-17B (R&D Systems, ref: 1248-IB/CF) (UniProt Q9UHF5 21-180); assay: ELISA
T2 chain: T1 sequence

B1: Antibody 18G9 (antibody, V domains shown)
VH: QITLKESGPGILKPSQTLSLTCSFSGFSLSTSGMGVGWIRQPSGKGLEWLAHIWWDDDKYYNPSLKSQLTISKDTSRNQVFLRITSVDTADTATYYCARRTQGYFDYWGQGTTLTVSS
VL: DILMTQSPASLAVSLGQRATISCKASQSVDYDGDSYMNWYQQKPGQPPKLLIYAASNLESGIPARFSGSGSGTDFTLNIHPVEEEDAATYYCQQSNEDPLTFGAGTKLELK
notes: Mouse monoclonal antibody directed against human IL-17B; also called mAb 18G9; 18G9a
**Q.** Which results are given for B1?
**A.** binding result [1]: binds; EC50 [2]: 6.88 ng/mL

B2: Antibody 13H5 (antibody, V domains shown)
VH: QVTLKESGPGILQPSQTLSLTCSFSGFSLSTFGMGVGWIRQPSGKGLEWLAHIWWDDDKYYNPALKSRLTISKDTSKNQVFLKIANVDTADTATYYCARMNDGYLYYWGQGTSVTVSS
VL: QIVLTQSPAIMSASPGEKVTMTCSASSSVSYMYWYQQKPGSSPRLLIYDTSNLASGVPVRFSGSGSGTSYSLTISRMEAEDAATYYCQQWSSYPFTFGSGTKLEIK
notes: Mouse monoclonal antibody directed against human IL-17B; also called mAb 13H5
**Q.** What does the source list for B2?
**A.** binding result [1]: binds; EC50 [2]: 6.64 ng/mL

B3: Antibody 21H6 (antibody, V domains shown)
VH: QVTLKESGPGILQPSQTLSLTCSFSGFSLSTFGMGVGWIRQPSGKGLEWLAHIWWDDDKYYNPALKGRLTISKDTSKNQVFLKIANVDTADTATYFCARIEDALDYWGQGTSVTVSS
VL: DIVMTQSPATLSVTPGDRVSLSCRASQNISDYLHWYQQKSHESPRLLIKYTSQSISGIPSRFSGSGSGSDFTLSINSVEPEDVGVYYCQNGHSFPFTFGSGTKLEIK
notes: Mouse monoclonal antibody directed against human IL-17B; also called mAb 21H6
**Q.** What does the source list for B3?
**A.** binding result [1]: binds; EC50 [2]: 2.28 ng/mL

B4: Antibody 12F9 (antibody, V domains shown)
VH: QVQLQQSGPELVKPGASVKISCKASGYTFTDYFINWVRQRPGQGLEWIGWIFPGSGSTYYHEKFKGKATLTVDKSSSTAYMLLSSLTSEDSAVYFCARTLYGNWYFDVWGTGTTVTVSS
VL: DVLMTQTPLSLPVSLGDQASISCRSSQSIVHSNGNTYLEWYLQKPGQSPKLLIYKVSNRFSGVPDRFSGSGSGTDFTLKISRVEAEDLGVYYCFQGSHVPYTFGGGTKLEIK
notes: Mouse monoclonal antibody directed against human IL-17B; also called mAb 12F9
**Q.** Does B4 bind [1]?
**A.** binds

**Q.** And the EC50 [2]?
**A.** 13.7 ng/mL
